From US10450368 (DUKE UNIVERSITY, dated 2019) come the findings set out here.

For orientation: IC50 means the concentration that inhibits the measured activity by half.

For one experiment, the target named is T1, CH505w030.20D8gp120/293F.
T1 construct: also called CH505w30.20 gp120
Kind of experiment: ELISA. For orientation: An ELISA detects its analyte on a solid surface through an enzyme-linked reagent.

A further experiment addresses T2, CH505.w30.12D8gp120.
T2 construct: also called CH505w30.12 gp120
As to the kind of experiment: ELISA.

For experiment [1], the target named is T3, CH505.TF mutant gp120 M20 (HIV-1).
T3 construct: domain: gp120
As to the kind of experiment: ELISA.

The target in the next experiment is CH505.M21D8gp120/293F. Kind of experiment: ELISA.
The next experiment deals with CH505.M9D8gp120/293F. As to the kind of experiment: ELISA.
The target of another experiment is T4, CH505.TF mutant gp120 M8 (HIV-1).
T4 construct: domain: gp120
As to the kind of experiment: ELISA.

The target in a further experiment is T5, CH505.TF mutant gp120 M6 (HIV-1).
T5 construct: domain: gp120
As to the kind of experiment: ELISA.

For another experiment, the target named is CH505.M10D8gp120. Kind of experiment: ELISA.
The next experiment deals with CH505.M19D8gp120. As to the kind of experiment: ELISA.
The target in the next experiment is CH505.M5D8gp120293F. As to the kind of experiment: ELISA.
In the next experiment the target is CH505.M7D8gp120/293F. Kind of experiment: ELISA.
For another experiment, the target named is CH505.M11D8gp120/293F. As to the kind of experiment: ELISA.
A further experiment has as its target CH0505_CON D7gp120/293i. As to the kind of experiment: ELISA.
In the next experiment the target is T6, CH505w020.14D8gp120.
T6 construct: also called CH505w20.14 gp120
As to the kind of experiment: ELISA.

A further experiment concerns the target CH505w136.B18D8gp120. As to the kind of experiment: ELISA.
A further experiment concerns the target T7, Jo-1 (UniProt P12081 1-509).
T7 sequence: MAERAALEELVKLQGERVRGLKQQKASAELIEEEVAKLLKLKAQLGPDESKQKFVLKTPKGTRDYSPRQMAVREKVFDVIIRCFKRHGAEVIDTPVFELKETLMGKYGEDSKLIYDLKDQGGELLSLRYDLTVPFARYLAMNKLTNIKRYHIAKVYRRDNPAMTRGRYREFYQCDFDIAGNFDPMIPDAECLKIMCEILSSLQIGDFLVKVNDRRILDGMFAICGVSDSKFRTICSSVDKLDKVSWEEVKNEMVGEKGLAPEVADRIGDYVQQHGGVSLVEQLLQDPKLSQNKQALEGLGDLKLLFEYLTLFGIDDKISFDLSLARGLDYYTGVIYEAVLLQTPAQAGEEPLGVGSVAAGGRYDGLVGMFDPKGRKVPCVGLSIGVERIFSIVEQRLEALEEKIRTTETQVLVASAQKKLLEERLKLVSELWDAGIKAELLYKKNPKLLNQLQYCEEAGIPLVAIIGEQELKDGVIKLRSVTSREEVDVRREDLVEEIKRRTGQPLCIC
Kind of experiment: ELISA, LogAUC grade.

Another experiment deals with T8, SSB (UniProt P05455 1-408).
T8 sequence: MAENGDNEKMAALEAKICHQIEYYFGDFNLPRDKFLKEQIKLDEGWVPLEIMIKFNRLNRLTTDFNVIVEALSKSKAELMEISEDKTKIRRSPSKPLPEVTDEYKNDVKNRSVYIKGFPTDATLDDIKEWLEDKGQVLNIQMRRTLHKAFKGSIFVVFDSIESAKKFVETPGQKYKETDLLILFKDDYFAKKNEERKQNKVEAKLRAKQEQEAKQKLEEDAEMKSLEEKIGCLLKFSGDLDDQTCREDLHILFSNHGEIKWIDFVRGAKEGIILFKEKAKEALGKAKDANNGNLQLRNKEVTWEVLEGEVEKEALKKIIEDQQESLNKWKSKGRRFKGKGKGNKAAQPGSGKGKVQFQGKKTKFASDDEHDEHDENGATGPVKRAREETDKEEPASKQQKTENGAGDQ
Kind of experiment: ELISA, LogAUC grade.

The target of another experiment is T9, Scl-70 (UniProt P11387 1-765).
T9 sequence: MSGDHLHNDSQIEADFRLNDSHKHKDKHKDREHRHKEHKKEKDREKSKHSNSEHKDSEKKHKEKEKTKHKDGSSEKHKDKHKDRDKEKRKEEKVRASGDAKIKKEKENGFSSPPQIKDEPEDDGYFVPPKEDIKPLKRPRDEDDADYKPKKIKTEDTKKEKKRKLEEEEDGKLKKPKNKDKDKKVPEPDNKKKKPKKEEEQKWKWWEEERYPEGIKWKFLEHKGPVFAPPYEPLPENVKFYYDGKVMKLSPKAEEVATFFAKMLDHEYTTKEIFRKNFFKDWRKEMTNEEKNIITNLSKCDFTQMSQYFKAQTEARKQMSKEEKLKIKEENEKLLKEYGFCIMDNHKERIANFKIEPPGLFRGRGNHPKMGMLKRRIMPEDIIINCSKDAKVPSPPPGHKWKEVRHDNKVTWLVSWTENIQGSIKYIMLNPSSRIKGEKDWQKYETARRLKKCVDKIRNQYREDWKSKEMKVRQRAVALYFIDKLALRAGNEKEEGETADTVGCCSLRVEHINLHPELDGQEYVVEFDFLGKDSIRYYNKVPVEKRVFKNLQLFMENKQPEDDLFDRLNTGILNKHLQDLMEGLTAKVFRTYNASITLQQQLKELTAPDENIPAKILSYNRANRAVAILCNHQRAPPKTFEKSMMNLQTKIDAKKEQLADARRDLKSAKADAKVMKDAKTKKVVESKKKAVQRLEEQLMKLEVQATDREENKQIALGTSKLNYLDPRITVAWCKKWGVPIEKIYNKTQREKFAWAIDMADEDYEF
Kind of experiment: ELISA, LogAUC grade.

In experiment [2] the target is T10, HIV-1 CH505 transmitted/founder gp120 Env (HIV-1).
T10 construct: domain: gp120; also called CH505.TF gp120; CH505 TF gp120 Env
Kind of experiment: competition ELISA, blocking of CH106 binding to gp120.

Experiment [3] deals with T10, HIV-1 CH505 transmitted/founder gp120 …. As to the kind of experiment: competition ELISA, blocking of sCD4 binding to gp120.

B1: CH493 (antibody, V domains shown)
VH: QVRLLQYGGGVKRPGASMTISCVASGYNFNDYYIHWVRQAPGQGLELMGWIDPSGGRTDYAGAFGDRVSMYRDKSMNTLYMDLRSLRSGDTAMYYCVRNVGTAGSLLHYDHWGLGVMVTVSS
VL: EIVLTQSPATLSVSPGERVTLSCRASQSVRNNLAWYRQKRGQAPRLLIYGASTRATGIPARFSGSGSGTEFTLTISSMQSEDFAVYYCQQYNNWWTFGQGTKVEIK
notes: also called CH235.9; DH493
Turning to B1, the LogAUC with CH505w030.20D8gp120/293F worked out at 8.09; with CH505.w30.12D8gp120 it was 3.17; in [1], 1.04; with CH505.M21D8gp120/293F, 1.13; in the experiment with CH505.M9D8gp120/293F, 1.31; with CH505.TF mutant gp120 M8, 4.36. In addition, the LogAUC with CH505.TF mutant gp120 M6 is 8.11; with CH505.M10D8gp120, 10.2; in the experiment with CH505.M19D8gp120 it was 5.95; with CH505.M5D8gp120293F, 9.26; in the experiment with CH505.M7D8gp120/293F it was 0.8; with CH505.M11D8gp120/293F it was 8.26. The LogAUC was 8.67 with CH0505_CON D7gp120/293i, 8.15 with CH505w020.14D8gp120 and 5.76 with CH505w136.B18D8gp120.

B2: CH557 (antibody, V domains shown)
VH: QVRLAQYGGGVKRLGATMTLSCVASGYTFNDYYIHWVRQAPGQGFELLGYIDPANGRPDYAGALRERLSFYRDKSMETLYMDLRSLRYDDTAMYYCVRNVGTAGSLLHYDHWGSGSPVIVSS
VL: EIVLTQSPATLSASPGERVTLTCRASRSVRNNVAWYQHKGGQSPRLLIYDASTRAAGVPARFSGSASGTEFTLAISNLESEDFTVYFCLQYNNWWTFGQGTRVDIK
notes: also called CH235.12; CH557_4A/293i
Turning to B2, the LogAUC in the experiment with CH505w030.20D8gp120/293F was 8.59; with CH505.w30.12D8gp120, 2.37; in experiment [1] it was 0; with CH505.M21D8gp120/293F, 0.19; with CH505.M9D8gp120/293F, 0.38; in the experiment with CH505.TF mutant gp120 M8, 1.14. Further, the LogAUC in the experiment with CH505.TF mutant gp120 M6 is 8.21; in the experiment with CH505.M10D8gp120, 7.63; with CH505.M19D8gp120, 4.61; with CH505.M5D8gp120293F it was 8.2; with CH505.M7D8gp120/293F it was 0.69; with CH505.M11D8gp120/293F, 7.71. The LogAUC amounted to 8.39 with CH0505_CON D7gp120/293i, 8.33 with CH505w020.14D8gp120 and 8.31 in the experiment with CH505w136.B18D8gp120. The binding result in the experiment with Jo-1, with SSB and in the experiment with Scl-70 was “no binding” in each case.

B3: CH241 (antibody, V domains shown)
VH: QVQLVQSGAAVKKPGASVRVSCKASGYTFTSSHIHWVRQAPGQGPEWMGMIDPSVGRPTTAGKFQGRVTMTRDRYTSTAYMDLSSLRSEDTAVYYCARSVETTGSLLYFDYWGQGTLITVSS
VL: EIVLTQSPATLSVSPGERATLSCRASQSVRSNIAWYQQKPGQAPRLLIHGASTRATGIPGRFSGSGSGPEFTLAISSVQSEDFAVYYCQQYNDWWTFGQGTKVEIK
With B3, the LogAUC was 8.03 in the experiment with CH505w030.20D8gp120/293F; 9.6 in the experiment with CH505.w30.12D8gp120; 2.15 in experiment [1]; 4.82 in the experiment with CH505.M21D8gp120/293F; 0 with CH505.M9D8gp120/293F; 2.18 in the experiment with CH505.TF mutant gp120 M8. In addition, the LogAUC in the experiment with CH505.TF mutant gp120 M6 was 13.2; with CH505.M10D8gp120, 14.4; with CH505.M19D8gp120 it was 10.4; in the experiment with CH505.M5D8gp120293F, 14.5; in the experiment with CH505.M7D8gp120/293F it was 0; in the experiment with CH505.M11D8gp120/293F, 9.68. The LogAUC turned out to be 13.3 in the experiment with CH0505_CON D7gp120/293i, 13.1 with CH505w020.14D8gp120 and 0.89 with CH505w136.B18D8gp120. The IC50 in experiment [2] is 1.5 µg/mL; in experiment [3], 2.6 µg/mL. Further, the binding result in the experiment with Jo-1, with SSB and with Scl-70 was “no binding” each time.

B4: CH235 (antibody, V domains shown)
VH: QVQLVQSGAEVKKPGASVTVSCQASGYTFTNYYVHWVRQAPGQGLQLMGWIDPSWGRTNYAQNFQGRITMTRDTSTSTVYMEMRSLRSEDTAVYYCARNVATEGSLLHYDYWGQGTLVTVSA
VL: EIVLTQSPATLSVSPGERATLSCRASQSVRSNLAWYQQRPGQAPRLLIYGTSTRATGVPARFSGRGSGTEFTLAISSMQSEDFAVYLCLQYNNWWTFGQGTKVEIK
notes: also called CH235_4A
Turning to B4, the LogAUC in the experiment with CH505w030.20D8gp120/293F is 8.33; in the experiment with CH505.w30.12D8gp120, 7.28; in experiment [1] it was 0; with CH505.M21D8gp120/293F, 0; with CH505.M9D8gp120/293F it was 0; in the experiment with CH505.TF mutant gp120 M8, 0. In addition, the LogAUC was 9.46 in the experiment with CH505.TF mutant gp120 M6; 10.6 with CH505.M10D8gp120; 7.13 with CH505.M19D8gp120; 11.4 with CH505.M5D8gp120293F; 0 with CH505.M7D8gp120/293F; 7.59 in the experiment with CH505.M11D8gp120/293F. The LogAUC with CH0505_CON D7gp120/293i was 9.73; with CH505w020.14D8gp120 it was 9.91; with CH505w136.B18D8gp120, 7.53. In addition, the IC50 was found to be 16.5 µg/mL in experiment [2] and 26.3 µg/mL in experiment [3]. In addition, the binding result with Jo-1, with SSB and with Scl-70 was “no binding” throughout.
